# Results taken from PMC10786891, “Massively parallel profiling of RNA-targeting CRISPR-Cas13d”.
# Positions count from the first letter of the chain named. Numbers in names are those of the source.
# T1: EsCas13d, nuclease-dead (Eubacterium siraeum, UniProt B0MS50, R295A;H300A;R849A;H854A)
# T1 sequence: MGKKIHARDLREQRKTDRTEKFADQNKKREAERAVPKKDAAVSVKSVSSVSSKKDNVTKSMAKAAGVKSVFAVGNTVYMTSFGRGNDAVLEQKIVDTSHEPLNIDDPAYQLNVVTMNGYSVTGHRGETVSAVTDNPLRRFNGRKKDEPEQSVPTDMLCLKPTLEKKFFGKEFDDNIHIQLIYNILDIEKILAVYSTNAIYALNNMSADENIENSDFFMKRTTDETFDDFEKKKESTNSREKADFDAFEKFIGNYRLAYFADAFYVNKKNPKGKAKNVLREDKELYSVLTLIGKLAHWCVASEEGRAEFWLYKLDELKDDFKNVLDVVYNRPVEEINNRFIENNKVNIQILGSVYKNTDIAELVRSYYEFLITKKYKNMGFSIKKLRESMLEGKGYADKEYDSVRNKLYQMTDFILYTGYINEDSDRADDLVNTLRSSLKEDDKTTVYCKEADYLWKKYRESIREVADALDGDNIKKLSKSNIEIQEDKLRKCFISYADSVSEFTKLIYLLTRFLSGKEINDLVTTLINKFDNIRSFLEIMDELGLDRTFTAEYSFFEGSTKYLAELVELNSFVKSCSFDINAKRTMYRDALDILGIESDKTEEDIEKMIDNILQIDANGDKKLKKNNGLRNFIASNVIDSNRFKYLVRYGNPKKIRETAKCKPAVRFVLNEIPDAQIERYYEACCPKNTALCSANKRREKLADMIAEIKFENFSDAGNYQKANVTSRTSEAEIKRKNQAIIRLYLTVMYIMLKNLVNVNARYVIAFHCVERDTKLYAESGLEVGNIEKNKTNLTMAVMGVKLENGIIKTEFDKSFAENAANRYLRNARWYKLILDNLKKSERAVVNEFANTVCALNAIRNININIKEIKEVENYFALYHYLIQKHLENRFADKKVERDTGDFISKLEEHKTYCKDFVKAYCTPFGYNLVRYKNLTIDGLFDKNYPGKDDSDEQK
# B1: target 1 C2A,C21A (mixed)
# RNA 1: CACCCGUGCAAAAAUGCAGGGGUCUAAAACUGAGCGGAUAACCUCUCUAUGG
# RNA 2: GGGAAUGGAUCCACAUCUACGAAUUCGUACAAUAGAGAGGUUAUCCGCUAACCGAGAUCGGAAGAGCACACGU
# B2: target 1 insA 3' of 19,insA 3' of 17 (mixed)
# RNA 1: B1 RNA 1
# RNA 2: GGGAAUGGAUCCACAUCUACGAAUUCGUACCAUAAGAAGAGGUUAUCCGCUCACCGAGAUCGGAAGAGCACACGU
# B3: target 1 G13C,C21U (mixed)
# RNA 1: B1 RNA 1
# RNA 2: B1 RNA 2 with A31U, G39C, A50C
# B4: target 1 G13A,A14G (mixed)
# RNA 1: B1 RNA 1
# RNA 2: B1 RNA 2 with A31C, A38G, G39A, A50C
# B5: target 1 C4G,G12A (mixed)
# RNA 1: B1 RNA 1
# RNA 2: B1 RNA 2 with A31C, G40A, C48G, A50C
# B6: target 1 insA 3' of 13,insG 3' of 8 (mixed)
# RNA 1: B1 RNA 1
# RNA 2: B2 RNA 2 with A35G, G36A, A37G, G42U, U44A, A45U, U46G
# B7: target 1 insA 3' of 12,insU 3' of 2 (mixed)
# RNA 1: B1 RNA 1
# RNA 2: GGGAAUGGAUCCACAUCUACGAAUUCGUACCAUAGAGAGGAUUAUCCGCUCUACCGAGAUCGGAAGAGCACACGU
# B8: target 1 insG 3' of 22,insA 3' of 21 (mixed)
# RNA 1: B1 RNA 1
# RNA 2: B2 RNA 2 with C31G, A32C, U33A, A35U, G36A, A37G
# B9: target 1 A9U,U19C (mixed)
# RNA 1: B1 RNA 1
# RNA 2: B1 RNA 2 with A31C, U33C, A43U, A50C
# B10: target 1 complement block 1-8 (mixed)
# RNA 1: B1 RNA 1
# RNA 2: B1 RNA 2 with A31C, U44A, C45G, C46G, G47C, C48G, U49A, A50G, A51U
# B11: target 1 insA 3' of 5,insG 3' of 4 (mixed)
# RNA 1: B1 RNA 1
# RNA 2: B7 RNA 2 with A41U, U43A, A44U, U45C, C47G, G48A, U50G, C51U, U52C
# B12: target 1 insC 3' of 20,insG 3' of 11 (mixed)
# RNA 1: B1 RNA 1
# RNA 2: B2 RNA 2 with U33C, A34U, A38G, G39A, A40G, G42U, U43G
# B13: target 1 U3A,G13C (mixed)
# RNA 1: B1 RNA 1
# RNA 2: B1 RNA 2 with A31C, G39C, U49A, A50C
# B14: target 1 insC 3' of 22,insA 3' of 13 (mixed)
# RNA 1: B1 RNA 1
# RNA 2: B2 RNA 2 with A32C, U33A, A34U, A38G, G39A, A40G, G41A
# B15: target 1 insC 3' of 10,insU 3' of 5 (mixed)
# RNA 1: B1 RNA 1
# RNA 2: B7 RNA 2 with A41U, U43C, C49U, U50C, C51U, U52C
# B16: target 1 insC 3' of 16,insG 3' of 8 (mixed)
# RNA 1: B1 RNA 1
# RNA 2: GGGAAUGGAUCCACAUCUACGAAUUCGUACCAUAGACGAGGUUAUGCCGCUCACCGAGAUCGGAAGAGCACACGU
# Target: T1, EsCas13d, nuclease-dead
# Assay: crRNA (strand 1, pre-loaded); Mg2+; 40 mM Tris-HCl pH 7.5, 150 mM NaCl, 6 mM MgCl2, 1 mM DTT, 0.1% Tween-20, 0.2 mg/ml BSA; 25 C; 10 min per concentration, then washed
# Conditions: tags: His6-TwinStrep-SUMO cleaved; N-terminal SNAP kept (SNAP-Surface 488); label: 3' end held by stalled T7 RNA polymerase
row,Binder,Kd
1,B1,38 ± 6 nM
2,B2,37 ± 5 nM
3,B3,5.6 ± 0.7 nM
4,B4,17.2 ± 1.6 nM
5,B5,3.39 ± 0.29 nM
6,B6,5.4 ± 0.5 nM
7,B7,40 ± 5 nM
8,B8,27.4 ± 2.6 nM
9,B9,26.3 ± 2.9 nM
10,B10,11.4 ± 0.4 nM
11,B11,6.6 ± 0.6 nM
12,B12,6.6 ± 0.5 nM
13,B13,32.2 ± 3.2 nM
14,B14,13.4 ± 2 nM
15,B15,14 ± 2.4 nM
16,B16,56 ± 13 nM
